The target of this experiment is Trypsin (UniProt P00761). Kind of experiment: enzyme inhibition assay.

pKi: −log10 of the molar value.

As usually defined, the pKi is the Ki on a negative log10 scale, so that one unit is a factor of ten. The low end stands for a high Ki, the high end for a low Ki. On to “C18-EETI-II (stearoyl, C18:0, fatty acylated EETI-II; octadecanedioic acid conjugate) (peptide)”, for which the pKi is 9.90.

On to “C12-EETI-II (lauroyl, C12:0, fatty acylated EETI-II) (peptide)”, for which the pKi was 9.99.

“C16-EETI-II (palmitoyl, C16:0, fatty acylated EETI-II) (peptide)” showed a pKi of 9.88.

As for “C14-EETI-II (myristoyl, C14:0, fatty acylated EETI-II) (peptide)”, the negative logarithm of the Ki (pKi) was 10.00.
